Results as given in US20240132578A1.

Columns and labels:
Assay in all cases: cell-based or functional assay
[1] = target: HIV-1 Env of isolate MGRM-C-019 (subtype C) (HIV-1)
[2] = target: aMLV envelope, on pseudovirus (negative control)
[3] = target: HIV-1 Env of isolate MGRM-G-028 (subtype G), on pseudovirus (HIV-1)
[4] = target: HIV-1 Env of isolate MGRM-C-006 (subtype C) (HIV-1)
[5] = target: HIV-1 Env of isolate MGRM-G-014 (subtype G), on pseudovirus (HIV-1)
[6] = target: HIV-1 Env of isolate MGRM-C-017 (subtype C) (HIV-1)
[7] = target: HIV-1 Env of isolate MGRM-G-011 (subtype G), on pseudovirus (HIV-1)
[8] = target: HIV-1 Env of isolate MGRM-C-027 (subtype C) (HIV-1)
[9] = target: HIV-1 JR-CSF Env D477A (HIV-1 JR-CSF) (UniProt P20871)
[10] = target: HIV-1 Env of isolate MGRM-C-007 (subtype C) (HIV-1)
[11] = target: HIV-1 Env of isolate MGRM-C-005 (subtype C) (HIV-1)
[12] = target: HIV-1 Env of isolate MGRM-C-012 (subtype C) (HIV-1)
[13] = target: HIV-1 Env of isolate MGRM-C-023 (subtype C) (HIV-1)
[14] = target: HIV-1 Env of isolate MGRM-G-024 (subtype G), on pseudovirus (HIV-1)
[15] = target: HIV-1 Env of isolate MGRM-C-028 (subtype C) (HIV-1)
[16] = target: HIV-1 Env of isolate 93MW959 (subtype C) (HIV-1)
[17] = target: HIV-1 Env of isolate MGRM-C-009 (subtype C) (HIV-1)
[18] = target: HIV-1 Env of isolate MGRM-G-001 (subtype G), on pseudovirus (HIV-1)
[19] = target: HIV-1 Env of isolate MGRM-C-002 (subtype C) (HIV-1)
[20] = target: HIV-1 Env of isolate MGRM-G-017 (subtype G), on pseudovirus (HIV-1)
[21] = target: HIV-1 Env of isolate MGRM-C-014 (subtype C) (HIV-1)
[22] = target: HIV-1 Env of isolate MGRM-C-013 (subtype C) (HIV-1)
[23] = target: HIV-1 Env of isolate MGRM-C-020 (subtype C) (HIV-1)
[24] = target: HIV-1 Env of isolate 97ZA012 (subtype C) (HIV-1)
[25] = target: HIV-1 Env of isolate MGRM-G-004 (subtype G), on pseudovirus (HIV-1)
[26] = target: HIV-1 Env of isolate MGRM-G-019 (subtype G), on pseudovirus (HIV-1)
[27] = target: HIV-1 Env of isolate MGRM-C-025 (subtype C) (HIV-1)
[28] = target: HIV-1 Env of isolate MGRM-C-026 (subtype C) (HIV-1)
[29] = target: HIV-1 Env of isolate MGRM-C-024 (subtype C) (HIV-1)
[30] = target: HIV-1 Env of isolate MGRM-C-001 (subtype C) (HIV-1)
[31] = target: HIV-1 Env of isolate MGRM-G-027 (subtype G), on pseudovirus (HIV-1)
[32] = target: HIV-1 Env of isolate 98IN022 (subtype C) (HIV-1)
[33] = target: HIV-1 Env of isolate MGRM-C-022 (subtype C) (HIV-1)
[34] = target: HIV-1 Env of isolate MGRM-G-009 (subtype G), on pseudovirus (HIV-1)
[35] = target: HIV-1 Env of isolate MGRM-G-025 (subtype G), on pseudovirus (HIV-1)
[36] = target: HIV-1 Env of isolate MGRM-G-015 (subtype G), on pseudovirus (HIV-1)
[37] = target: HIV-1 Env of isolate MGRM-G-016 (subtype G), on pseudovirus (HIV-1)
[38] = target: HIV-1 Env of isolate MGRM-G-013 (subtype G), on pseudovirus (HIV-1)
[39] = target: HIV-1 Env of isolate MGRM-C-015 (subtype C) (HIV-1)
[40] = target: HIV-1 Env of isolate MGRM-C-004 (subtype C) (HIV-1)
[41] = target: HIV-1 JR-CSF Env N478A (HIV-1 JR-CSF) (UniProt P20871)
[42] = target: HIV-1 Env of isolate MGRM-G-006 (subtype G), on pseudovirus (HIV-1)
[43] = target: HIV-1 Env of isolate MGRM-C-008 (subtype C) (HIV-1)
[44] = target: HIV-1 Env of isolate MGRM-C-010 (subtype C) (HIV-1)
[45] = target: HIV-1 JR-CSF Env R476A (HIV-1 JR-CSF) (UniProt P20871)

B1: PGT-125 (antibody, V domains shown)
VH: QSQLQESGPRLVEASETLSLTCNVSGESTGACTYFWGWVRQAPGKGLEWIGSLSHCQSFWGSGWTFHNPSLKSRLTISLDTPKNQVFLKLTSLTAADTATYYCARFDGEVLVYNHWPKPAWVDLWGRGIPVTVSS
VL: QSALTQPPSASGSPGQSITISCNGTATNFVSWYQQFPDKAPKLIIFGVDKRPPGVPDRFSGSRSGTTASLTVSRLQTDDEAVYYCGSLVGNWDVIFGGGTTLTVL
IC50 (µg/mL), pseudovirus neutralization [1]: 0.13 µg/mL | IC50 (µg/mL), neutralization of pseudovirus [2]: > 50 µg/mL | IC50 (µg/mL), neutralization of pseudovirus [3]: 0.012 µg/mL | IC50 (µg/mL), pseudovirus neutralization [4]: 0.015 µg/mL | IC50 (µg/mL), neutralization of pseudovirus [5]: 0.007 µg/mL | IC50 (µg/mL), pseudovirus neutralization [6]: 2.36 µg/mL | IC50 (µg/mL), neutralization of pseudovirus [7]: > 50 µg/mL | IC50 (µg/mL), pseudovirus neutralization [8]: > 50 µg/mL | Fold IC50 increase relative to wild-type [9]: 3.4 fold | IC50 (µg/mL), pseudovirus neutralization [10]: > 50 µg/mL | IC50 (µg/mL), pseudovirus neutralization [11]: 2.09 µg/mL | IC50 (µg/mL), pseudovirus neutralization [12]: > 50 µg/mL | IC50 (µg/mL), pseudovirus neutralization [13]: 1.31 µg/mL | IC50 (µg/mL), neutralization of pseudovirus [14]: > 50 µg/mL | IC50 (µg/mL), pseudovirus neutralization [15]: 14 µg/mL | IC50 (µg/mL), pseudovirus neutralization [16]: 37.5 µg/mL | IC50 (µg/mL), pseudovirus neutralization [17]: > 50 µg/mL | IC50 (µg/mL), neutralization of pseudovirus [18]: 0.033 µg/mL | IC50 (µg/mL), pseudovirus neutralization [19]: 0.008 µg/mL | IC50 (µg/mL), neutralization of pseudovirus [20]: > 50 µg/mL | IC50 (µg/mL), pseudovirus neutralization [21]: > 50 µg/mL | IC50 (µg/mL), pseudovirus neutralization [22]: > 50 µg/mL | IC50 (µg/mL), pseudovirus neutralization [23]: > 50 µg/mL | IC50 (µg/mL), pseudovirus neutralization [24]: 2.46 µg/mL | IC50 (µg/mL), neutralization of pseudovirus [25]: > 50 µg/mL | IC50 (µg/mL), neutralization of pseudovirus [26]: > 50 µg/mL | IC50 (µg/mL), pseudovirus neutralization [27]: 42.5 µg/mL | IC50 (µg/mL), pseudovirus neutralization [28]: 0.005 µg/mL | IC50 (µg/mL), pseudovirus neutralization [29]: > 50 µg/mL | IC50 (µg/mL), pseudovirus neutralization [30]: > 50 µg/mL | IC50 (µg/mL), neutralization of pseudovirus [31]: 34.4 µg/mL | IC50 (µg/mL), pseudovirus neutralization [32]: 22.1 µg/mL | IC50 (µg/mL), pseudovirus neutralization [33]: 1.23 µg/mL | IC50 (µg/mL), neutralization of pseudovirus [34]: > 50 µg/mL | IC50 (µg/mL), neutralization of pseudovirus [35]: > 50 µg/mL | IC50 (µg/mL), neutralization of pseudovirus [36]: > 50 µg/mL | IC50 (µg/mL), neutralization of pseudovirus [37]: > 50 µg/mL | IC50 (µg/mL), neutralization of pseudovirus [38]: > 50 µg/mL | IC50 (µg/mL), pseudovirus neutralization [39]: > 50 µg/mL | IC50 (µg/mL), pseudovirus neutralization [40]: 1.82 µg/mL | Fold IC50 increase relative to wild-type [41]: 1.5 fold | IC50 (µg/mL), neutralization of pseudovirus [42]: > 50 µg/mL | IC50 (µg/mL), pseudovirus neutralization [43]: > 50 µg/mL | IC50 (µg/mL), pseudovirus neutralization [44]: > 50 µg/mL

B2: PGT-123 (antibody, V domains shown)
VH: QLHLQESGPGLVKPPETLSLTCSVSGASINDAYWSWIRQSPGKRPEWVGYVHHSGDTNYNPSLKRRVTFSLDTAKNEVSLKLVDLTAADSATYFCARALHGKRIYGIVALGELFTYFYMDVWGKGTAVTVSS
VL: SSMSVSPGETAKISCGKESIGSRAVQWYQQKPGQPPSLIIYNNQDRPAGVPERFSASPDFRPGTTATLTITNVDAEDEADYYCHIYDARGGTNWVFDRGTTLTVL
IC50 (µg/mL), pseudovirus neutralization [1]: > 50 µg/mL | IC50 (µg/mL), neutralization of pseudovirus [2]: > 50 µg/mL | IC50 (µg/mL), neutralization of pseudovirus [3]: 0.008 µg/mL | IC50 (µg/mL), pseudovirus neutralization [4]: 0.021 µg/mL | IC50 (µg/mL), neutralization of pseudovirus [5]: 0.005 µg/mL | IC50 (µg/mL), pseudovirus neutralization [6]: 0.01 µg/mL | IC50 (µg/mL), neutralization of pseudovirus [7]: 14.9 µg/mL | IC50 (µg/mL), pseudovirus neutralization [8]: 0.02 µg/mL | Fold IC50 increase relative to wild-type [9]: 2.3 fold | IC50 (µg/mL), pseudovirus neutralization [10]: 0.547 µg/mL | IC50 (µg/mL), pseudovirus neutralization [11]: 0.012 µg/mL | IC50 (µg/mL), pseudovirus neutralization [12]: 0.605 µg/mL | IC50 (µg/mL), pseudovirus neutralization [13]: 0.011 µg/mL | IC50 (µg/mL), neutralization of pseudovirus [14]: 0.032 µg/mL | IC50 (µg/mL), pseudovirus neutralization [15]: 0.402 µg/mL | IC50 (µg/mL), pseudovirus neutralization [16]: 0.011 µg/mL | IC50 (µg/mL), pseudovirus neutralization [17]: > 50 µg/mL | IC50 (µg/mL), neutralization of pseudovirus [18]: 0.009 µg/mL | IC50 (µg/mL), pseudovirus neutralization [19]: 0.01 µg/mL | IC50 (µg/mL), neutralization of pseudovirus [20]: 0.026 µg/mL | IC50 (µg/mL), pseudovirus neutralization [21]: 1 µg/mL | IC50 (µg/mL), pseudovirus neutralization [22]: 14.9 µg/mL | IC50 (µg/mL), pseudovirus neutralization [23]: > 50 µg/mL | IC50 (µg/mL), pseudovirus neutralization [24]: 0.002 µg/mL | IC50 (µg/mL), neutralization of pseudovirus [25]: 0.181 µg/mL | IC50 (µg/mL), neutralization of pseudovirus [26]: 0.008 µg/mL | IC50 (µg/mL), pseudovirus neutralization [27]: 13.3 µg/mL | IC50 (µg/mL), pseudovirus neutralization [28]: 0.001 µg/mL | IC50 (µg/mL), pseudovirus neutralization [29]: 0.195 µg/mL | IC50 (µg/mL), pseudovirus neutralization [30]: 42.4 µg/mL | IC50 (µg/mL), neutralization of pseudovirus [31]: 0.182 µg/mL | IC50 (µg/mL), pseudovirus neutralization [32]: 0.011 µg/mL | IC50 (µg/mL), pseudovirus neutralization [33]: 0.01 µg/mL | IC50 (µg/mL), neutralization of pseudovirus [34]: 33.5 µg/mL | IC50 (µg/mL), neutralization of pseudovirus [35]: 0.046 µg/mL | IC50 (µg/mL), neutralization of pseudovirus [36]: > 50 µg/mL | IC50 (µg/mL), neutralization of pseudovirus [37]: > 50 µg/mL | IC50 (µg/mL), neutralization of pseudovirus [38]: 3.97 µg/mL | IC50 (µg/mL), pseudovirus neutralization [39]: 13.1 µg/mL | IC50 (µg/mL), pseudovirus neutralization [40]: 0.009 µg/mL | IC50 (µg/mL), neutralization of pseudovirus [42]: > 50 µg/mL | IC50 (µg/mL), pseudovirus neutralization [43]: 0.011 µg/mL | IC50 (µg/mL), pseudovirus neutralization [44]: > 50 µg/mL | Fold IC50 increase relative to wild-type [45]: 2 fold
